From paper PMC11035981, “Activity assays of NnlA homologs suggest the natural product N-nitroglycine is degraded by diverse bacteria” (Beilstein Journal of Organic Chemistry, 2024)

Assays:
Assay in all cases: SEC; analytical size exclusion, Superdex 200 Increase 10/300 GL, mobile phase 100 mM tricine, 100 mM NaCl, pH 7.5; masses from BioRad protein standards; self-association of each purified NnlA
[1] = target: NnlA homolog from Pseudovibrio denitrificans JCM 1230 (Pseudovibrio denitrificans JCM 1230)
[2] = target: NnlA homolog from Pseudonocardia spinosispora DSM 44797 (Pseudonocardia spinosispora DSM 44797)
[3] = target: NnlA homolog from Mycobacterium sp. 1465703.0 (Mycobacterium sp. 1465703.0)
[4] = target: N-nitroglycine lyase A (NnlA) from Variovorax sp. strain JS1663 (Variovorax sp. strain JS1663)
[5] = target: the molecule itself

“NnlA homolog from Pseudovibrio denitrificans JCM 1230 (enzyme)” gave a stoichiometry N [1] of 2.

Work on “NnlA homolog from Pseudonocardia spinosispora DSM 44797 (enzyme)” yielded a stoichiometry N [2] of 2.

“NnlA homolog from Mycobacterium sp. 1465703.0 (enzyme)” gave a stoichiometry N [3] of 2.

With “N-nitroglycine lyase A (NnlA) from Variovorax sp. strain JS1663 (enzyme)” the stoichiometry N [4] was 2.

B1: NnlA homolog from Microbispora rosea subsp. nonnitritogenes strain NRRL B-2631 (enzyme)
chain: MTSQAEPAEAAESRIATDWGLDEWADRLIDQAGVGVTILNRHGTVMYYNKWASEHLDRRPEYIGNDVRKRHRRAVTNPRLDAMLKLFEDGRVEPVRYVARPYGKTTILVTVSPIRVDGELVGFSQIVLLKDEVQELCARFDESGRESFEREMLPNGPPAT
With B1 the “stoichiometry N” value [5] was 2.
